The target of experiment [1] is cynomolgus OX40R on activated cynomolgus monkey T cells / PBMCs (cynomolgus monkey). As to the kind of experiment: cell-based or functional assay.
Experiment [2] deals with T1, OX40R extracellular and transmembrane domain fused to the intracellular domain of CD40, in 293 cells with an … (UniProt P43489 29-235; P25942 216-277, limits assumed).
T1 sequence (looked up): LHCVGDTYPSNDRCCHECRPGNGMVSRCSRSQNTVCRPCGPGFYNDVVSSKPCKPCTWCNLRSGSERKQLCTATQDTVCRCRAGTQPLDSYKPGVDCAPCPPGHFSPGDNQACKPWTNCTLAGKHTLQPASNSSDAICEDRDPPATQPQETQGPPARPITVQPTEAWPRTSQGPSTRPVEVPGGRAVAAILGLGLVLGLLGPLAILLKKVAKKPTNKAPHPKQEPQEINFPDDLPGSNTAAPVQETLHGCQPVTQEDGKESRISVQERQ
Kind of experiment: cell-based or functional assay.

Experiment [3] has as its target T2, CD271-Ig (Alexis Biochemicals) (human, UniProt P08138 29-250).
T2 construct: extracellular domain; Bought; also called nerve growth factor receptor (CD271)
As to the kind of experiment: ELISA on coated receptor-Ig fusion proteins, against the EC50 on the OX40R fusion protein. The protocol:
(§1) Maxisorb 96-well plates (Nunc, Roskilde, Denmark) were coated with 100 μl of human TNFα receptor family member fusion proteins at 0.25 μg/ml diluted in BupH™ Carbonate buffer, pH 9.4 (Pierce, Rockford, Ill.) and incubated overnight at 4° C. The selectivity receptor fusion proteins tested included CD40-Ig (Alexis Biochemicals, San Diego, Calif.), CD137-Ig (R&D Systems, Minneapolis, Minn.) and CD271-Ig (Alexis Biochemicals, San Diego, Calif.). Also included as the positive control with each assay was the OX40-Ig fusion protein (in-house construct, Bioexpress, 97/2117). Plates were then washed three times with wash buffer containing 0.05% Tween 20 (Sigma, St Louis, Mo.) diluted in PBS and blocked with 300 μl of 0.5% BSA (Sigma, St Louis, Mo.) in PBS (Sigma, St Louis, Mo.) for 1 hour at RT°. Next, the plates were washed and 100 μl/well of anti-human OX40 reactive antibodies were added to the plates at various concentrations and incubated for 1 hour at RT°. Plates were thoroughly washed three times and OX40R antibody binding was detected with a horse radish peroxidase labeled anti-human kappa chain antibody (Bethyl Laboratories, Montgomery, Tex.) at 25 ng/ml for 1 hour at RD°. Plates were then washed three times which was followed by the addition of 100 μl/well of 1-Step Turbo-TMB substrate (Pierce, Rockford, Ill.) for 30 minutes at RT. The reaction was stopped by adding an equal volume of 2M H₂ SO₄. Absorbance was read at 450 nm on a Molecular Devices Spectra Max 340 (Molecular Devices, Sunnyvale, Calif.).
(In general: ELISA stands for enzyme-linked immunosorbent assay.)

Experiment [4] addresses T3, CD40-Ig (Alexis Biochemicals) (human, UniProt P25942 21-193).
T3 construct: extracellular domain; Bought; also called CD40 receptor
Described as above. The protocol: as §1

In another experiment the target is T4, CD137-Ig (R&D Systems) (human, UniProt Q07011 24-186).
T4 construct: extracellular domain; Bought; also called 4-1BB receptor (CD137)
Described as above. The protocol: as §1

Experiment [5] concerns the target T5, human OX40R on activated primary human T cells (human, UniProt P43489 29-277).
T5 sequence (looked up): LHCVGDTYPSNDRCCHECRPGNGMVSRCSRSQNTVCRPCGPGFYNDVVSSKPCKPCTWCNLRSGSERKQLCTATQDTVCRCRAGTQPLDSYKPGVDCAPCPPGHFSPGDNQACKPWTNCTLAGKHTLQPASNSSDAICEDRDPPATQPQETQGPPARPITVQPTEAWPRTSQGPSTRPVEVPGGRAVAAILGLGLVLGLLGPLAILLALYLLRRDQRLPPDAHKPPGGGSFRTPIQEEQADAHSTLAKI
Kind of experiment: cell-based or functional assay.

Experiment [6] has as its target T6, recombinant human OX40-CD40 fusion construct (amino acids 1-235 of OX40, 216-278 of CD40) expressed on 300-19 … (human, UniProt P43489 29-235; P25942 216-277).
T6 construct: range 1-235;range 216-278; also called OX40R+ 300-19 cells; OX40R transfected cells
T6 sequence (looked up): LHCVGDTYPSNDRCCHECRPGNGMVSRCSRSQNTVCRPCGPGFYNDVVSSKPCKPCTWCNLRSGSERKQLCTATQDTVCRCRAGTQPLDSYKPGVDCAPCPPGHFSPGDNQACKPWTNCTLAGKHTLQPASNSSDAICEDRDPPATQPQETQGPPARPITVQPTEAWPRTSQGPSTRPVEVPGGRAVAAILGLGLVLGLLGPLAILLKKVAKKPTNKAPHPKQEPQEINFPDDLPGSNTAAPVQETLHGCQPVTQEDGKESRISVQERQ
Kind of experiment: FACS saturation binding on OX40R+ 300-19 cells (N = 2). The protocol:
OX40R-expressing cell lines (see below) or activated primary peripheral blood mononuclear cells (see below) were used to assess binding on both the human and cynomolgus OX40 receptors. Cells were harvested and washed (5×10⁵/tube) using wash buffer at RT°. The wash buffer consisted of PBS, 2% heat-inactivated fetal bovine serum (Hyclone, Logan, Utah) and 0.02% sodium azide (Sigma, St. Louis, Mo.). Next, 100 μl of various concentrations of antibody was added to the cells (starting at 30 ug/ml and using a 3-fold titration) diluted in wash buffer containing 0.005 mg/ml of cytocholasin B (Sigma, St. Louis, Mo.). The cells were gently rocked at RT° for 3 hours. Next, the cells were washed twice and resuspended in 0.5 ml/tube with cold wash buffer and 10,000 events were collected and analyzed using a Becton Dickinson FACSCalibur and CellQuest software (San Jose, Calif.).

Consider two molecules from patent US20190135932A1 (Pfizer, published 2019).

Values joined by “and” are separate entries in the source; they are usually repeats but may differ in a detail not shown here. Equal entries are not always repeated.

T4 sequence (Q07011 whole entry, the tested form may be a part): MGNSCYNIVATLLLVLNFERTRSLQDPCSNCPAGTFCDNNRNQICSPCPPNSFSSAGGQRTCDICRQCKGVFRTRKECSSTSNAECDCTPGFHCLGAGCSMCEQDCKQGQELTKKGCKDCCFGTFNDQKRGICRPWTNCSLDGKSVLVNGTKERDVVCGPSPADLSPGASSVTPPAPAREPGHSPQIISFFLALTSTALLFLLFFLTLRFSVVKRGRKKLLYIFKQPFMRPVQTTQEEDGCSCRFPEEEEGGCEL
T2 sequence (P08138 29-250): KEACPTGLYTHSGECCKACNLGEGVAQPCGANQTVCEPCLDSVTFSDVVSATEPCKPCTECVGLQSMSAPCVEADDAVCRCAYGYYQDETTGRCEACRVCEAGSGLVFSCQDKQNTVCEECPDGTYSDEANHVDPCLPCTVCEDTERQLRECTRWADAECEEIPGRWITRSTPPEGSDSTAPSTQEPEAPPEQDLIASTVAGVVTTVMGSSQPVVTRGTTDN
T3 sequence (P25942 21-193): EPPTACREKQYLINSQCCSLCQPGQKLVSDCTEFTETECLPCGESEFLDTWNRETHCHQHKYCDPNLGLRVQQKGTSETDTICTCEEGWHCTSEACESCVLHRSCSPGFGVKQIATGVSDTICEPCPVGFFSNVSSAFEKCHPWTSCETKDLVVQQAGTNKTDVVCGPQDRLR

B1: human monoclonal antibody 11D4 (antibody, V domains shown)
VH: EVQLVESGGGLVQPGGSLRLSCAASGFTFSSYSMNWVRQAPGKGLEWVSYISSSSSTIDYADSVKGRFTISRDNAKNSLYLQMNSLRDEDTAVYYCARESGWYLFDYWGQGTLVTVSS
VL: DIQMTQSPSSLSASVGDRVTITCRASQGISSWLAWYQQKPEKAPKSLIYAASSLQSGVPSRFSGSGSGTDFTLTISSLQPEDFATYYCQQYNSYPPTFGGGTKVEIKR
notes: IgG2 heavy chain, kappa light chain; allotypes G2(n-) and Km3; Alexa Fluor 647 conjugate was used in the species cross-reactivity FACS
Turning to B1, the “EC50 of anti-CD3 induced IL-2 production by monkey cells (mean of 1:3 dilution curves, N=3)” value in experiment [1] was 0.022 mg/L. The “In vitro stimulation of OX40R+ transfected cells (luciferase) (EC50; N = 4)” value in experiment [2] was 0.33 µg/ml and 2.2 nM. Also, the “fold selectivity for the OX40R over this receptor” value (in experiment [3]; in experiment [4]; in the experiment with CD137-Ig (R&D Systems)) was > 100 fold throughout.

B2: human monoclonal antibody 18D8 (antibody, human IgG2, kappa, V domains shown)
VH: EVQLVESGGGLVQPGRSLRLSCAASGFTFDDYAMHWVRQAPGKGLEWVSGISWNSGSIGYADSVKGRFTISRDNAKNSLYLQMNSLRAEDTALYYCAKDQSTADYYFYYGMDVWGQGTTVTVSS
VL: EIVVTQSPATLSLSPGERATLSCRASQSVSSYLAWYQQKPGQAPRLLIYDASNRATGIPARFSGSGSGTDFTLTISSLEPEDFAVYYCQQRSNWPTFGQGTKVEIKR
For orientation: EC50 means the concentration giving half of the maximal effect. Regarding B2, in experiment [5], the “Augmentation of T Cell Activity (EC50): CD3 induced IL-2 production (N = 4)” value is 0.049 µg/ml and 0.33 nM; the “Augmentation of T Cell Activity (EC50): Stimulation of IL-2 production by antigen-primed cells (N = 1)” value was 0.014 µg/ml and 0.1 nM. Further, the EC50 in experiment [6] is 0.24 µg/mL and 1.66 nM.
